Key:
Biot-CC2-LZ (murine) [1] = assay: HTRF, 50 nM each, in the presence of Poly-Ub (12.5 µM)
Biot-CC2-LZ (murine) [2] = assay: HTRF, 50 nM each, in the presence of Mono-Ub (1 µM)
Biot-CC2-LZ (murine) [3] = assay: HTRF, 50 nM each, streptavidin-EuK 2 nM, anti-His-XL665 7 nM
Biot-CC2-LZ (murine) [4] = assay: HTRF, 50 nM each, in the presence of GST-Ub4 (12.5 µM), which induces the CC2-LZ dimer

B1: His-CC2-LZ (protein)
chain: MGSHHHHHHSSGLVPRGSHMASLEDLRQQLQQAEEALVAKQELIDKLKEEAEQHKIVMETVPVLKAQADIYKADFQAERHAREKLVEKKEYLQEQLEQLQREFNKL
Biot-CC2-LZ (murine) [1]
  FRET (ΔF %): < 0 ΔF %
Biot-CC2-LZ (murine) [2]
  FRET (ΔF %): < 0 ΔF %
Biot-CC2-LZ (murine) [3]
  FRET (ΔF %): < 0 ΔF %
Biot-CC2-LZ (murine) [4]
  FRET (ΔF %): 373 ΔF %
